# Results published in patent publication US20070172470A1, “Phosphatase regulation of nucleic acid transcription” (The Regents of the University of California, priority 2003, published 2007).
# B1: GST-SCP1 214: GST fusion of the 214 aa spliced variant of SCP1, SEQ ID NO:8 (protein)
# chain: MMGRPCLLTAGRPCLWRRMAPSLRQTPVQYLLPEAKAQDSDKICVVIDLDETLVHSSFKPVNNADFIIPVEIDGVVHQVYVLKRPHVDEFLQRMGELFECVLFTASLAKYADPVADLLDKWGAFRARLFRESCVFHRGNYVKDLSRLGRDLRRVLILDNSPASYVFHPDNAVPVASWFDNMSDTELHDLLPFFEQLSRVDDVYSVLRQPRPGS
# modifications: left off: a dimerising Fc or GST
# B2: REST/NRSF: RE-1 silencing transcription factor / Neuron-Restrictive Silencer Factor (protein, UniProt Q13127 1-1097, looked up)
# RE1-silencing transcription …: MATQVMGQSSGGGGLFTSSGNIGMALPNDMYDLHDLSKAELAAPQLIMLANVALTGEVNGSCCDYLVGEERQMAELMPVGDNNFSDSEEGEGLEESADIKGEPHGLENMELRSLELSVVEPQPVFEASGAPDIYSSNKDLPPETPGAEDKGKSSKTKPFRCKPCQYEAESEEQFVHHIRVHSAKKFFVEESAEKQAKARESGSSTAEEGDFSKGPIRCDRCGYNTNRYDHYTAHLKHHTRAGDNERVYKCIICTYTTVSEYHWRKHLRNHFPRKVYTCGKCNYFSDRKNNYVQHVRTHTGERPYKCELCPYSSSQKTHLTRHMRTHSGEKPFKCDQCSYVASNQHEVTRHARQVHNGPKPLNCPHCDYKTADRSNFKKHVELHVNPRQFNCPVCDYAASKKCNLQYHFKSKHPTCPNKTMDVSKVKLKKTKKREADLPDNITNEKTEIEQTKIKGDVAGKKNEKSVKAEKRDVSKEKKPSNNVSVIQVTTRTRKSVTEVKEMDVHTGSNSEKFSKTKKSKRKLEVDSHSLHGPVNDEESSTKKKKKVESKSKNNSQEVPKGDSKVEENKKQNTCMKKSTKKKTLKNKSSKKSSKPPQKEPVEKGSAQMDPPQMGPAPTEAVQKGPVQVEPPPPMEHAQMEGAQIRPAPDEPVQMEVVQEGPAQKELLPPVEPAQMVGAQIVLAHMELPPPMETAQTEVAQMGPAPMEPAQMEVAQVESAPMQVVQKEPVQMELSPPMEVVQKEPVQIELSPPMEVVQKEPVKIELSPPIEVVQKEPVQMELSPPMGVVQKEPAQREPPPPREPPLHMEPISKKPPLRKDKKEKSNMQSERARKEQVLIEVGLVPVKDSWLLKESVSTEDLSPPSPPLPKENLREEASGDQKLLNTGEGNKEAPLQKVGAEEADESLPGLAANINESTHISSSGQNLNTPEGETLNGKHQTDSIVCEMKMDTDQNTRENLTGINSTVEEPVSPMLPPSAVEEREAVSKTALASPPATMAANESQEIDEDEGIHSHEGSDLSDNMSEGSDDSGLHGARPVPQESSRKNAKEALAVKAAKGDFVCIFCDRSFRKGKDYSKHLNRHLVNVYYLEEAAQGQE
# B3: SCP2: small CTD phosphatase-2, SEQ ID NO:4 (protein, listed as Homo sapiens)
# chain: MEHGSIITQARREDALVLTKQGLVSKSSPKKPRGRNIFKALFCCFRAQHVGQSSSSTELAAYKEEANTIAKSDLLQCLQYQFYQIPGTCLLPEVTEEDQGRICVVIDLDETLVHSSFKPINNADFIVPIEIEGTTHQVYVLKRPYVDEFLRRMGELFECVLFTASLAKYADPVTDLLDRCGVFRARLFRESCVFHQGCYVKDLSRLGRDLRKTLILDNSPASYIFHPENAVPVQSWFDDMADTELLNLIPIFEELSGAEDVYTSLGAAAGPLACPASKRRPSQ
# B4: FCP1: recombinant CTD phosphatase FCP1, class C phosphatase with BRCT domain (protein)
# chain: MEVPAAGRVPAEGAPTAAVAEVRCPGPAPLRLLEWRVAAGAAVRIGSVLAVFEAAASAQSSGASQSRVASGGCVRPARPERRLRSERAGVVRELCAQPGQVVAPGAVLVRLEGCSHPVVMKGLCAECGQDLTQLQSKNGKQQVPLSTATVSMVHSVPELMVSSEQAEQLGREDQQRLHRNRKLVLMVDLDQTLIHTTEQHCQQMSNKGIFHFQLGRGEPMLHTRLRPHCKDFLEKIAKLYELHVFTFGSRLYAHTIAGFLDPEKKLFSHRILSRDECIDPFSKTGNLRNLFPCGDSMVCIIDDREDVWKFAPNLITVKKYVYFQGTGDMNAPPGSRESQTRKKVNHSRGTEVSEPSPPVRDPEGVTQAPGVEPSNGLEKPARELNGSEAATPRDSPRPGKPDERDIWPPAQAPTSSQELAGAPEPQGSCAQGGRVAPGQRPAQGATGTDLDFDLSSDSESSSESEGTKSSSSASDGESEGKRGRQKPKAAPEGAGALAQGSSLEPGRPAAPSLPGEAEPGAHAPDKEPELGGQEEGERDGLCGLGNGCADRKEAETESQNSELSGVTAGESLDQSMEEEEEEDTDEDDHLIYLEEILVRVHTDYYAKYDRYLNKEIEEAPDIRKIVPELKSKVLADVAIIFSGLHPTNFPIEKTREHYHATALGAKILTRLVLSPDAPDRATHLIAARAGTEKVLQAQECGHLHVVNPDWLWSCLERWDKVEEQLFPLRDDHTKAQRENSPAAFPDREGVPPTALFHPMPVLPKAQPGPEVRIYDSNTGKLIRTGARGPPAPSSSLPIRQEPSSFRAVPPPQPQMFGEELPDAQDGEQPGPSRRKRQPSMSETMPLYTLCKEDLESMDKEVDDILGEGSDDSDSEKRRPEEQEEEPQPRKPGTRRERTLGAPASSERSAAGGRGPRGHKRKLNEEDAASESSRESSNEDEGSSSEADEMAKALEAELNDLM
# Experiments:
# GST-CTDo = molecular target: T1, GST-CTDo (Homo sapiens, UniProt P24928); assay: CTD phosphatase assay with GST-CTDo (rCTDo) as substrate; type: biochemical
# T1 construct: made in house
# T1 sequence (P24928 1593-1960 A1835T, one chain of several): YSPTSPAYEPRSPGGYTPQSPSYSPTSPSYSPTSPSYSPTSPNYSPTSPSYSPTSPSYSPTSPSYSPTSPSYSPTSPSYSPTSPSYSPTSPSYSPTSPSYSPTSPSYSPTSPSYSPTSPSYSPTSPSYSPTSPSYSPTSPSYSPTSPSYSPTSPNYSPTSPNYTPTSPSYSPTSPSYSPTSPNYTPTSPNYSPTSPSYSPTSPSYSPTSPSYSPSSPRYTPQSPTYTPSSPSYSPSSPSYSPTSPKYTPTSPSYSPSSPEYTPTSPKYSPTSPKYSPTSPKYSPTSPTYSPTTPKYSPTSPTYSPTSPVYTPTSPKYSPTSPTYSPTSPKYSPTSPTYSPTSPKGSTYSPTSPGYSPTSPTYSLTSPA
# Protocol: (§1) FIGS. 2C and 2D show a CTD phosphatase assay of FCP1 and SCP1 on GST-CTDo and RNAP IIO prepared by MAPK2/ERK2. Increasing amounts of FCP1 or GST-SCP1 214 were assayed in the presence of 75 fmol GST-CTDo (lanes 1-6), 75 fmol RNAP IIO (lanes 7-12), or 75 fmol GST-CTDo and 75. fmol RNAP IIO (lanes 13-18). Both GST-CTDo and RNAP IIO substrates were prepared by the in vitro phosphorylation of CKII-labeled GST-CTDa or RNAP IIA by MAPK2/ERK2. All reactions were carried out in the presence of 7 pmol RAP74. CTD dephosphorylation of both GST-CTDo and RNAP IIO is shown by the increase in mobility of GST-CTDo to GST-CTDa and subunit IIo to IIa, respectively. The difference in the intensity of radiolabeled GST-CTDoand that of radiolabeled subunit IIo is not a reflection of a difference in the amount of substrates present, but of the higher efficiency with which CKII incorporates radiolabeled phosphates onto the most C-terminal serine of GST-CTDa compared to subunit. IIa.
# Preparation and Purification of ^32P-RNAP IIO Isozymess and ^32P-GST-CTDo: Calf thymus RNAP IIA was purified by the method of Hodo and Blatti (30) with modifications as described by Kang and Dahmus (31). […]
# CTD phosphatase assays utilizing RNAP IIO and GST-CTDo as substrate were performed as described previously (32) with minor modifications. […] Data were quantitatively analyzed by ImageQuant software.
# [1] = test system: P19 mouse embryonic stem cells; assay: Neuronal differentiation of P19 cells; type: cell-based; settings: clonal P19 line, retinoic acid, selective medium
# Protocol: P19 cells, C, differentiated GFP expressing P19 cells; D, differentiated SCP1-expressing P19 cells; F, differentiated REST/NRSF-expressing P19 cells. Numbers of NLC per field are shown. *p=0.001 compared to WT 19 cells; **p=0.008 compared to WT P19 cell using student's t-test.
# P19 stably expressing REST/NRSF.
# These cell lines were maintained in α-MEM/10%FBS with […] G418. To induce neuronal differentiation, P19 cells were allowed to aggregate in bacterial grade petri-dishes (Fisher) at a seeding density of 1×10^5cells/ml in the presence of 1×10^−6M all-trans retinoic acid. After 3 days of aggregation, cells were dissociated into single cells by 0.05% trypsin-0.53 mM EDTA (Gibco). Trypsin was removed by centrifugation and the cells were plated in 6 cm tissue culture dishes (Nunc). at a density of 1×10^5 cells/cm^2 in Neurobasal medium/N2 supplement (Invitrogen) in the presence or absence of 1 μg/ml fibronectin (Invitrogen). The cells were cultured for 5 days after which average cell numbers/field were determined. Cells were either lysed to prepare total RNA (Rneasy kit, Qiagen) or stained with TuJ1 antibody (Babco).
# For immunostaining, cells were fixed for 10 mins with 4% paraformaldehyde. TuJ1 antibody was used at 1:2000 and secondary antibody used was FITC-conjuagated anti-mouse (1:3000).
# RNAP IIO = molecular target: T2, RNAP IIO (Bos taurus, UniProt G3MZY8); assay: CTD phosphatase assay with RNAP IIO as substrate; type: biochemical, calf
# T2 construct: Calf thymus RNAP IIA was purified; from tissue; host or cells: calf thymus
# Protocol: as §1
# Increasing amounts of GST-SCP1 214 were assayed in the presence of 3.7 fmol RNAP IIO prepared by CTDK1/CTDK2, TFIIH, P-TEFb, MAPK2/ERK2 and Cdc2 kinase. All reactions were carried out in-the presence of 7 pmol. RAP74. CTD dephosphorylation of RNAP IIO isozymes. by qSTSCP1 214 is shown by an increase in mobility of subunit IIo to that of IIa. The results are summarized in the graph showing the percent of RNAP IIO remaining as a function of increasing SCP1 concentrations.
# Preparation and Purification of ^32P-RNAP IIO Isozymess and ^32P-GST-CTDo: Calf thymus RNAP IIA was purified by the method of Hodo and Blatti (30) with modifications as described by Kang and Dahmus (31). Specific isozymes of ^32p-labeled RNAP IIO were prepared by phosphorylation at the most C-terminal serine (CKII site) in the largest subunit of purified RNAP IIA with recombinant CKII and […], followed by CTD phosphorylation in the presence of 2 mM ATP with either purified CTDK1/CTDK2, TFIIH, P-TEFb, recombinant MAPK2/ERK2 or recombinant Cdc2 kinase. The RNAP IIO isozymes were individually purified over a DE53 column with a step elution of 500 mM KCl (28). Because only the most C-terminal serine is labeled with ^32p and lies outside. the consensus repeat, dephosphorylation by CTD phosphatase results in an electrophoretic mobility shift in SDS-PAGE of subunit IIo to the position of subunit IIa without the loss of label. Similarly, ^32P-labeled GST-CTDo was prepared from GST-CTDa by CKII followed by MAPK2/ERK2. GST-CTDo was purified over a glutathione-agarose column with a step elution of 15 mM glutathione.
# CTD phosphatase assays utilizing RNAP IIO and GST-CTDo as substrate were performed as described previously (32) with minor modifications. Reactions were performed in 20 μl of CTD phosphatase buffer (50 mM Tris-HCl, pH 7.9, 10 mM MgCl2, 20% glycerol, 0.025% Tween 80, 0.1 mM EDTA, 5 mM DTT) in the presence of 20 mM KCl. Each reaction contained specified amounts of GST-CTDo and/or RNAP IIO and was carried out in the presence of 7 pmol RAP74. Reactions were initiated by the addition of FCP1 or SCP1 and incubated at 30° C. for 30 minutes. Assays were terminated by the addition of 5× Laemmli buffer, and RNAP II subunits and GST-CTD were resolved on a 5% SDS-PAGE gel. The gel images were developed by autoradiography and scanned by Molecular Dynamics Image Scanner Storm 860 in the phosphor screen mode. Data were quantitatively analyzed by ImageQuant software.
# [2] = test system: 28 aa CTD heptad repeat peptide with Ser 5 phosphate or Ser 2 phosphate; assay: CTD phosphopeptide phosphatase assay (malachite green); type: biochemical; settings: 25 μM phosphopeptide, 60 mins at 37° C.
# Protocol: The indicated amounts of. SCP1 were incubated with the phosphopeptide substrate and phosphate released was measured as described infra.
# N-terminal biotinylated CTD phosphopeptides, comprised of 4 tandem repeats YSPTSPS and containing phosphoserine at position 2 or position 5, were synthesized (Alpha Diagnostics, San Antonio, Tex.). Phosphatase reaction mixtures (50 μl) containing 50 mM Tris-acetate, pH 5.5, 10 mM MgCl2, 0.5 mM DTT, 10% glycerol, 25 μM of phosphopeptide and wild type or mutant SCP1 were incubated for 60 mins at 37° C. The reactions were quenched by adding 0.5 ml of malachite green (Biomol). Phosphate release was measured at A620 and quantified relative to a phosphate standard curve.
molecule,measurement,setting,value
B1,dephosphorylation of both RNAP IIO and GST-CTDo,"GST-CTDo; substrates prepared by MAPK2/ERK2, 75 fmol each, 7 pmol RAP74",comparable efficiency
B2,effect on neuronal differentiation,[1],prevented neuronal differentiation
B3,CTD phosphatase activity when RNAP IIO is utilized as substrate,RNAP IIO; compared with SCP1,comparable CTD phosphatase activity
B4,dephosphorylation of RNAP IIO prepared with Cdc2 kinase,"RNAP IIO; 3.7 fmol RNAP IIO, 7 pmol RAP74",efficiently dephosphorylates
same,dephosphorylation of Ser 5 versus Ser 2 phosphopeptide,[2],did not act on either phosphopeptide
same,"concentration without dephosphorylation of rCTDo, relative to that required to dephosphorylate RNAP IIO",GST-CTDo,> 100 times
